These results are taken from patent US20210023129A1, “PLATINUM PRODRUG PERFLUOROARYL PEPTIDE CONJUGATES” (MASSACHUSETTS INSTITUTE OF TECHNOLOGY, priority 2019, published 2021).

SMILES strings stand for the structures. *1 amine or outer side, *2 acyl side, *3 side chain or, on linkers, in order; H or OH if unused. Where a SMILES comes first, the peptide text is derived from it. Bridges are numbered along the chain shown (N, C = ends). Perfluorobiphenyl(4,4') = Fc1c(F)c([*:1])c(F)c(F)c1-c1c(F)c(F)c([*:2])c(F)c1F; Suc = O=C(CCC(=O)[*:2])[*:1]

Data set [1] relates to G9 neurospheres (patient-derived glioma cells). Particulars: for IC50: read-out: IC50 against the G9 cells, treated for 80 hours, CellTiter-Glo. As for the experimental part: The cytotoxicity of the PtIV-M13 conjugate was evaluated against patient-derived glioma cells (GCs). To evaluate the in vitro efficacy of the conjugate, G9 neurospheres were treated with PtIV-M13, prodrug 4, and cisplatin for 80 hours. After treatment, the potency of the compounds was assessed by the CellTiter-Glo luminescent cell viability assay (FIGS. 2A and 2B). The assay involves lysis of the cells and quantitation of the amount of ATP present, which is directly proportional to the number of living cells in culture. […] The same experiment was repeated on G30 GCs.
(In general: Cellular ATP, detected with luciferase, serves as a proxy for viable cell number.)

Data set [2] has as its system G30 GCs (patient-derived glioma cells). Description: CellTiter-Glo luminescent cell viability assay, G30 GCs. The data set is classed as cell-based, human. Conditions: same experiment as G9 (80 hours, CellTiter-Glo), read-out: IC50 (potency) on G30 GCs. As to the method:
The cytotoxicity of the PtIV-M13 conjugate was evaluated against patient-derived glioma cells (GCs). To evaluate the in vitro efficacy of the conjugate, G9 neurospheres were treated with PtIV-M13, prodrug 4, and cisplatin for 80 hours. After treatment, the potency of the compounds was assessed by the CellTiter-Glo luminescent cell viability assay (FIGS. 2A and 2B). The assay involves lysis of the cells and quantitation of the amount of ATP present, which is directly proportional to the number of living cells in culture. […] However, prodrug 4 was not potent, perhaps due to an inability to enter cells (FIG. 2A). As a result, in the follow-up in vitro experiment with another GC line, PtIV-L13 was used as a control instead as this should have similar properties to the PtIV-M13, only without the perfluoroaryl. The same experiment was repeated on G30 GCs.

Data set [3] is described as follows: Pharmacokinetics in healthy mice: platinum in serum and brain by GFAAS. Particulars: tail vein; for brain distribution of platinum over time / serum concentration of platinum over time: 100 μL of 100 μM (~2.5 mg/kg), 1, 2.5 and 5 hours. As to the method:
Pharmacokinetic and biodistribution studies were performed in healthy mice. For pharmacokinetics, 100 μL of a 100 μM solution of PtIV-M13 or PtIV-L13 dissolved in saline (corresponding to a dose of ˜2.5 mg/kg) were injected into the tail veins of mice. The brain and a blood sample were isolated at 1, 2.5, and 5 hours. A portion of the brain was dissolved in nitric acid and the amount of platinum in the brain and serum were quantified by GFAAS. […] The error bars are the standard deviation from three different animals injected with the compound. […] The error bars are the standard deviation from three different animals injected with the compound.

Data set [4] can be described thus: Biodistribution in mice: platinum in organs by GFAAS. Particulars: tail vein, 100 μL of 100 μM in saline, after five hours. As for the experimental part:
To study the biodistribution, 100 μL of a 100 μM solution of PtIV-M13, PtIV-L13, or cisplatin dissolved in normal saline were injected into the tail vein of mice. After five hours, the mice were sacrificed and the brain, heart, lungs, kidney, spleen and liver were removed. The amount of platinum in each organ was measured by dissolving a portion of the respective organ in nitric acid and then quantifying the amount of platinum by GFAAS (supporting information).

One may read the IC50 as the midpoint of a concentration-inhibition curve.

Turning to `N.N.[Cl][Pt][Cl]` [cisplatin, reference compound], in data set [1], the IC50 was 4.34 ± 0.66 µM.
On to `CC[C@H](C)[C@H](NC(=O)[C@H](CCCCN)NC(=O)CNC(=O)[C@H](CC(C)C)NC(=O)[C@H](CC(C)C)NC(=O)[C@H](Cc1ccc(O)cc1)NC(=O)CNC(=O)[C@H](C)NC(=O)CCC(=O)O)C(=O)N[C@@H](CC(N)=O)C(=O)N[C@@H](CC(C)C)C(=O)N[C@@H](CCCCN)C(=O)N[C@@H](C)C(=O)N[C@H]1CSc2c(F)c(F)c(c(F)c2F)-c2c(F)c(F)c(c(F)c2F)SC[C@@H](C(=O)N[C@@H](CC(C)C)C(N)=O)NC(=O)[C@H](CCCCN)NC(=O)[C@H](CCCCN)NC(=O)[C@H](C)NC(=O)[C@H](CC(C)C)NC(=O)[C@H](C)NC(=O)[C@H](C)NC1=O` [PtIV-M13] (Suc-AGYLLGKINLKACAALAKKCL-NH2; linker 13-20 via Perfluorobiphenyl(4,4')), for which the IC50 worked out at 4.04 µM in data set [2] and 4.51 ± 0.22 µM in data set [1]. Moreover, in data set [3], the “brain distribution of platinum over time” value is “increased over time”. The “serum concentration of platinum over time” value in data set [3] is “decreased over time”. The “brain uptake versus linear control PtIV-L13” value in data set [3] (~2.5 mg/kg, brain platinum read-out) is recorded as “more brain uptake”. For the same compound, in data set [3] (~2.5 mg/kg, serum platinum read-out), the “stability in serum versus linear control PtIV-L13” value is recorded as “more stable in serum”. Further, the “increase in the amount of platinum in the brain compared with cisplatin” value in data set [4] came out at 15 fold.
`CCCCNC(=O)[O][Pt]([NH2])([NH2])([Cl])([Cl])[O]C(=O)CCC(=O)O` [prodrug 4]: the “IC50 against the G9 cells” value in data set [1] (treated for 80 hours, CellTiter-Glo) is reported as “not potent”.
Consider `CC[C@H](C)[C@H](NC(=O)[C@H](CCCCN)NC(=O)CNC(=O)[C@H](CC(C)C)NC(=O)[C@H](CC(C)C)NC(=O)[C@H](Cc1ccc(O)cc1)NC(=O)CNC(=O)[C@H](C)NC(=O)CCC(=O)O)C(=O)N[C@@H](CC(N)=O)C(=O)N[C@@H](CC(C)C)C(=O)N[C@@H](CCCCN)C(=O)N[C@@H](C)C(=O)N[C@@H](CO)C(=O)N[C@@H](C)C(=O)N[C@@H](C)C(=O)N[C@@H](CC(C)C)C(=O)N[C@@H](C)C(=O)N[C@@H](CCCCN)C(=O)N[C@@H](CCCCN)C(=O)N[C@@H](CO)C(=O)N[C@@H](CC(C)C)C(N)=O` [PtIV-L13] (Suc-AGYLLGKINLKASAALAKKSL-NH2), for which the IC50 in data set [2] is 28.8 µM. Besides, in data set [3], the “brain distribution of platinum over time” value is “increased over time” and the “serum concentration of platinum over time” value was “decreased over time”.
